The values that follow come from PMC9250508 (Nature Communications, 2022).

Assay [1] addresses T1, SARS-CoV-2 spike glycoprotein, Omicron BA.2, Δ19 C-terminal truncation, on ExpiCHO-S cells (SARS-CoV-2, Omicron BA.2, strain).
T1 construct: also called BA.2 spike
As to the kind of experiment: flow cytometry on cells. The note with it: one partner purified. On the technique in general: A flow cytometer gives signals particle by particle.

Assay [2] concerns the target T2, SARS-CoV-2 spike glycoprotein, Wuhan D614, Δ19 C-terminal truncation, on ExpiCHO-S cells (SARS-CoV-2 BetaCoV/Wuhan-Hu-1/2019 …, UniProt P0DTC2).
T2 construct: also called Wuhan-D614 spike; Wuhan-1 D614
Briefly: flow cytometry on cells. The conditions noted are these: one partner purified.

The target in assay [3] is T3, SARS-CoV-2 spike glycoprotein, Omicron BA.1, Δ19 C-terminal truncation, on ExpiCHO-S cells (SARS-CoV-2, Omicron BA.1 (B.1.1.529), strain).
T3 construct: also called BA.1 spike
Briefly: flow cytometry on cells. The note with it: one partner purified.

Assay [4] addresses T4, Purified SARS-CoV-2 BA.2 RBD protein (AcroBiosystem) (SARS-CoV-2, Omicron BA.2, strain).
T4 construct: also called Omicron lineage RBD; source: bought: AcroBiosystem
As to the kind of experiment: BLI. The note with it: both partners purified.

Assay [5] concerns the target T5, SARS-CoV-2 BA.1 RBD (residues 319–537, C-terminal AviTag and 8xHisTag) (SARS-CoV-2, Omicron BA.1 (B.1.1.529), strain).
T5 construct: also called Omicron lineage RBD
Briefly: BLI. The note with it: both partners purified.

B1: VIR-7831 (the clinical form of S309-LS) (antibody, V domains shown)
VH: not shown
VL: EIVLTQSPGTLSLSPGERATLSCRASQTVSSTSLAWYQQKPGQAPRLLIYGASSRATGIPDRFSGSGSGTDFTLTISRLEPEDFAVYYCQQHDTSLTFGGGTKVEIK
notes: also called sotrovimab; clinical lead variant of S309-LS; copies: 2 + 2
Consider B1, for which the binding result in assay [1], in assay [2] and in assay [3] was “binds” throughout.

B2: AZD8895 Fab (Fab, V domains shown)
VH: QMQLVQSGPEVKKPGTSVKVSCKASGFTFMSSAVQWVRQARGQRLEWIGWIVIGSGNTNYAQKFQERVTITRDMSTSTAYMELSSLRSEDTAVYYCAAPYCSSISCNDGFDIWGQGTMVTVSS
VL: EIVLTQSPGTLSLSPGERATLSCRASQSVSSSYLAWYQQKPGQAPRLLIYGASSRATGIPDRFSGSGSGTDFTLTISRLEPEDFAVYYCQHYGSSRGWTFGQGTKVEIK
notes: also called tixagevimab; COV2-2196
As for B2, the binding result in assay [4] and in assay [5] was “binds” throughout.

B3: AZD1061 Fab (Fab, V domains shown)
VH: EVQLVESGGGLVKPGGSLRLSCAASGFTFRDVWMSWVRQAPGKGLEWVGRIKSKIDGGTTDYAAPVKGRFTISRDDSKNTLYLQMNSLKTEDTAVYYCTTAGSYYYDTVGPGLPEGKFDYWGQGTLVTVSS
VL: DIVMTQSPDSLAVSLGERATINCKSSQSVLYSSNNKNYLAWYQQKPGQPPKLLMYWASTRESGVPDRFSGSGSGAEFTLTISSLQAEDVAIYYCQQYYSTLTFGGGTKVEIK
notes: also called cilgavimab; COV2-2130
Regarding B3, the binding result in assay [4] and in assay [5] was “binds” each time.
